Experimental data taken from PMC8269367, “DNA G-Quadruplexes Contribute to CTCF Recruitment”.

T1: HMGN1 (Homo sapiens, UniProt P05114 1-100)
T1 sequence: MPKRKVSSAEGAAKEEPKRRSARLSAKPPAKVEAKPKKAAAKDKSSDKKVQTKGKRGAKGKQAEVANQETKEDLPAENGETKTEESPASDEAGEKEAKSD

T2: HMGB2 (Homo sapiens, UniProt P26583 1-209)
T2 sequence: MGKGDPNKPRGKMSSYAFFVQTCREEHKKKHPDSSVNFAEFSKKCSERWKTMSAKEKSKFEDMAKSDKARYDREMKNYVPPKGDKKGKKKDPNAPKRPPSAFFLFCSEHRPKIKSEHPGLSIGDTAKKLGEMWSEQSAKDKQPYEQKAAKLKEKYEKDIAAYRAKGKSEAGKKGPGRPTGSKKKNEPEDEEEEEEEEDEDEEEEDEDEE


Assays:
HMGN1 [1] = molecular target: T1, HMGN1; assay: MST; positive control; MST, 50 nM labelled protein, 0.61 nM-20 uM oligo, 140 mM potassium phosphate pH 7.2 (6.7 for i-motif N1-3; CTCF oligo CD at pH 6.7), 10 mM NaCl in oligo stocks, 22 C; conditions: protein: commercial; tags: His; parallel G4
HMGB2 = molecular target: T2, HMGB2; assay: MST; MST, 50 nM labelled protein, 0.61 nM-20 uM oligo, 140 mM potassium phosphate pH 7.2 (6.7 for i-motif N1-3; CTCF oligo CD at pH 6.7), 10 mM NaCl in oligo stocks, 22 C; conditions: protein: commercial; tags: His; mixed-topology G4
HMGN1 [2] = molecular target: T1, HMGN1; assay: as above; conditions: protein: commercial; tags: His; parallel G4, partly intermolecular

Row | Binder | Kd (HMGB2) | also measured
1 | GGTGACAGGGGTATGGGGAGGGG (structured_DNA) [CT1 (G4-2)] |  | Kd (HMGN1 [1]): 1600 ± 300 nM
2 | GGGAGAGGGAGAGGGAGAGGG (structured_DNA) [B2-M6] | 4000 ± 2000 nM | 
3 | GGGCCCTGGGAACGGGGAGGG (structured_DNA) [B2-M7] | 1600 ± 600 nM | 
4 | GGGGAGGGGGAGGGGGGAGGGAGGGGAGG (structured_DNA) [N1C-3 (N1-C3)] |  | Kd (HMGN1 [2]): 200 ± 100 nM
